The target of series [1] is T1, tPA (Homo sapiens, UniProt P00750). In words: tPA/plasminogen activation assay. The format is biochemical. To be noted: % of standardized positive control; 1:10 diluted samples. As for the experimental part:
(§1) β2-GPI was reduced and alkylated as follows. Sixhundredforty μl of β2-GPI stock was mixed with 640 μl of 8 M Urea (cooled solution) in 0.1 M Tris pH-8.2. The solution was degassed with N2 gas for approximately 6 minutes. From a 1 M DTT stock 12.8 μl was added to the solution, mixed and incubated for 3 hours at room temperature. A 1 M Iodoacetamide (Sigma; I-6125) was prepared, of which 25.6 μl was added to the β2-GPI reaction mixture. The solution was subsequently dialysed against PBS. […] Signals obtained with alkyl-β2gpi are compared with those obtained with native β2gpi starting material and with positive control acid/heat denatured amyloid-like misfolded γ-globulins.
Exiqon Peptide Immobilizer plates were blocked for 1 hour with PBS, 1% Tween20 and rinsed twice with distilled water. The conversion of the chromogenic substrate S-2251 (Chromogenix, Italy) by plasmin was kinetically measured at 37° C. on a Spectramax340 microplate reader at a wavelength of 405 nm. […] Denatured γ-globulins (100 μg/ml) with amyloid-like structure was used as reference and positive control. Lyophilized γ-globulins (Sigma, Mo., USA) were dissolved in a 1(:)1 volume ratio of 1,1,1,3,3,3-hexafluoro-2-propanol and trifluoro-acetic acid and subsequently dried under air. Dried γ-globulins was dissolved in H2O to a final concentration of 1 mg/ml and kept at room temperature for at least three days and subsequently stored at −20° C.
(§2) Protein therapeutics were obtained from the local hospital pharmacy and analyzed within the expiry limits as stated by the manufacturers.

A short description of series [2]: Stability testing of biopharmaceuticals under denaturing conditions. The class given is physicochemical. The conditions noted are these: after exposure to harsh denaturing conditions (low pH or heat). As for the experimental part: For this purpose, 5 mg/mL Glucagon (Glucagen; Novo Nordisk Farma B. V., Alphen aan de Rijn, The Netherlands) was incubated at 37° C. in 0.01 M HCl for 48 hours. One mg/mL Etanercept (Enbrel; Wyeth Pharmaceuticals B. V., Hoofddorp, The Netherlands) in 67 mM sodium phosphate buffer, 100 mM NaCl pH 7.0 was gradually heated from 30° C. to 85° C. over a period of 12 minutes and afterwards cooled to 4° C. for 5 minutes, this treatment was repeated 4 times. Abciximab (Reopro; Centocor B. V., Leiden, The Netherlands) and Infliximab (Remicade; Schering-Plough B. V., Utrecht, The Netherlands) were incubated at 65° C. for 16 and 72 hours, respectively.

The nature of series [3]: ThT fluorescence enhancement by biopharmaceuticals. The conditions noted are these: +/− SD; five μL of protein therapeutic. The class given is physicochemical. As for the experimental part:
(§3) Fluorescence of ThT—protein/peptide adducts was measured as follows. […] Fluorescence was measured at 485 nm upon excitation at 435 nm. Background signals from buffer, buffer with ThT and protein/peptide solution without ThT were subtracted from corresponding measurements with protein solution incubated with ThT. Regularly, fluorescence of Aβ was used as a positive control, and fluorescence of FP10, a non-amyloid fibrin fragment^16, was used as a negative control. Fluorescence was measured in triplicate on a Hitachi F-4500 fluorescence spectrophotometer (Ltd., Tokyo, Japan).
as §1, §2
(§4) Fluorescence of Thioflavin T (ThT; Sigma T-3516, St. Louis, Mo., USA) and Congo red (CR; Aldrich Chemical Company Inc., Milwaukee, Wis., USA) was measured on a Hitachi F-4500 spectrophotometer at an excitation wavelength of 435 nm and emission wavelength of 485 nm for ThT and an excitation wavelength of 550 nm and emission wavelength of 595 nm for Congo red. […] Fluorescence was measured in triplicate. Background fluorescence of both protein in buffer and dye-solution were subtracted from the total fluorescence signal. Five μg/mL fibrillar amyloid-β(1-40) E22Q (Peptide Synthesis Facility of the Dutch Cancer Institute NKI, Amsterdam, The Netherlands) was used as a positive control in all fluorescence assays.

For series [4], the target named is T1, tPA. Kind of series: Plasminogen-activation assay (tPA activation, S-2251). The class given is biochemical. To be noted: for tPA activating potential: Example 4, native, heat-denatured or alkylated preparation as labelled. On the procedure: Plasmin (Pls) activity was assayed as described^16. Peptides and proteins that were tested for their stimulatory ability were regularly used at 100 μg ml^−1. […] Chromogenic substrate S-2251 (Chromogenix, Instrumentation Laboratory SpA, Milano, Italy) was used to measure Pls activity. Conversion of zymogen factor XII (#233490, Calbiochem, EMD Biosciences, Inc., San Diego, Calif.) to proteolytically active factor XII (factor XIIa) was assayed by measurement of the conversion of chromogenic substrate Chromozym-PK (Roche Diagnostics, Almere, The Netherlands) by kallikrein. Chromozym-PK was used at a concentration of 0.3 mM. Factor XII, human plasma prekallikrein (#529583, Calbiochem) and human plasma cofactor high-molecular weight kininogen (#422686, Calbiochem) were used at concentrations of 1 μg ml^−1. […] Assays were performed using microtiter plates (Costar, Cambridge, Mass., USA). Peptides and proteins were tested for their ability to activate factor XII. 150 μg ml^−1 kaolin, an established activator of factor XII was used as positive control and solvent (H2O) as negative control. The conversion of Chromozym-PK was recorded kinetically at 37° C. for at least 60 minutes. Assays were done in duplicate.
(§5) Formulated protein therapeutics were obtained from the local hospital pharmacy and were used as supplied by the manufacturers. […] Lyophilized therapeutics were dissolved according to the manufacturers recommendations. GH, zinc-insulin, Cealb and gelatin were stored at −20, 4, room temperature, 37 and 65° C. Other protein therapeutics were only kept at 4° C., and assayed for the presence of cross-β structure at shown time points. Enhancement in fluorescence of ThT and Congo red was measured with all formulated protein therapeutics. For this purpose, proteins were diluted to the indicated concentrations. […] Zinc-insulin was diluted tenfold in the activation assay, GH was diluted to a final concentration of 500 μg ml^−1. Activation of factor XII and prekallikrein by the therapeutics was tested in the chromogenic factor XII assay (see above). […] After coating, plates were blocked with Blocking Reagent (Roche Diagnostics, Almere, The Netherlands).
(§6) To prepare structurally altered ovalbumin (OVA) with amyloid cross-β structures, purified OVA (Sigma, A-7641, lot 071k7094) was heated to 85° C. One mg ml^−1 OVA in 67 mM NaPi buffer pH 7.0, 100 mM NaCl, was heated for two cycles in PCR cups in a PTC-200 thermal cycler (MJ Research, Inc., Waltham, Mass., USA). In each cycle, OVA was heated from 30 to 85° C. at a rate of 5° C./min. Native OVA (nOVA) and heat-denatured OVA (dOVA) were tested in the ThT fluorescence assay and in the Plg-activation assay. In the fluorescence assay and in the Plg-activation assay, 25 and 100 μg ml^−1 nOVA and dOVA were tested, respectively. TEM images of nOVA and dOVA were taken to check for the presence of large aggregates.
MSA (#126674, Calbiochem) was dissolved in 8 M urea, 100 mM Tris-HCl pH 8.2, at 10 mg ml^−1 final concentration. Dithiothreitol (DTT) was added to a final concentration of 10 mM. Air was replaced by N2 and the solution was incubated for 2 h at room temperature. Then, the solution was transferred to ice and iodoacetamide was added from a 1 M stock to a final concentration of 20 mM. […] Alkyl-MSA was dialyzed against H2O before use. […] In the ThT-fluorescence assay 25 μg ml^−1 nMSA and alkyl-MSA were tested, and in the Plg-activation assay 100 μg ml^−1 was tested. The presence of aggregates or fibrils was analyzed using TEM.
Lyophilized sterile glucagon was dissolved at 1 mg ml^−1 in H2O with 10 mM HCl. The solution was subsequently kept at 37° C. for 24 h, at 4° C. for 14 days and again at 37° C. for 9 days. […] TEM analysis was performed to assess the presence of large multimeric structures.

The nature of series [5]: Thioflavin T fluorescence of protein solutions. The class given is physicochemical. On the procedure:
as §3, §5
ThT fluorescence of β2GPI was measured as follows. […] CL vesicles were prepared according to an established procedure. Briefly, CL was dried under a stream of nitrogen. The lipids were resuspended to a concentration of 10 mg ml^−1 in 25 mM Tris-HCl, pH 7.3, 150 mM NaCl by vigorous agitation, using a vortex. In the ThT fluorescence assay, fluorescence of β2GPI in buffer, of CL or DXS500k in buffer, of buffer and ThT alone, and of β2GPI-CL adducts and β2GPI-DXS500k adducts, with or without ThT, was recorded as described above (section ThT fluorescence). In addition, TEM images were recorded with CL, β2GPI from human plasma, with or without CL, and with recombinant β2GPI, as described^5.
as §6
MSA (#126674, Calbiochem) was dissolved in 8 M urea, 100 mM Tris-HCl pH 8.2, at 10 mg ml^−1 final concentration. Dithiothreitol (DTT) was added to a final concentration of 10 mM. Air was replaced by N2 and the solution was incubated for 2 h at room temperature. Then, the solution was transferred to ice and iodoacetamide was added from a 1 M stock to a final concentration of 20 mM. […] In the ThT-fluorescence assay 25 μg ml^−1 nMSA and alkyl-MSA were tested, and in the Plg-activation assay 100 μg ml^−1 was tested. The presence of aggregates or fibrils was analyzed using TEM. […]

Series [6] is described as follows: Congo red fluorescence enhancement by biopharmaceuticals. The format is physicochemical. To be noted: +/− SD; five μL of protein therapeutic. On the procedure: Background signals from buffer, buffer with Congo red and protein/peptide solution without Congo red were subtracted from corresponding measurements with protein solution incubated with Congo red. Fluorescence was measured in triplicate on a Hitachi F-4500 fluorescence spectrophotometer (Ltd., Tokyo, Japan).
as §2, §4

Series [7] deals with T1, tPA. In words: tPA binding assay with immobilized biopharmaceuticals in an ELISA. To be noted: coated 1:10, one-site binding model. As for the experimental part: Plates were washed twice with Tris buffered saline pH 7.2 containing 0.1% Tween20 (TBST) and blocked with PBS containing 1% Tween20 for 1 hour at room temperature. […] Plates were washed five times with TBST and incubated with peroxidase labeled anti-mouse immunoglobulins (RAMPO; DAKOCytomation, Glostrup, Denmark) diluted 1:3000 in PBST for 30 minutes at room temperature. Plates were washed five times with PBS 0.1% Tween20, and stained with 100 μL/well of tetramethyl-benzidine (TMB) substrate (Biosource Europe, Nivelles, Belgium). The reaction was terminated with 50 μL/well of 2 M H2SO4 and substrate conversion was read at 450 nm on a Spectramax340 microplate reader. Curves were fitted with a one-site binding model (GraphPad Prism version 4.02 for Windows, Graphpad Software, Calif., USA) from which Kd and Bmax were determined.
as §2
A general note: An ELISA detects its analyte on a solid surface through an enzyme-linked reagent.

Series [8] has as its target T1, tPA. In words: tPA ELISA with coated protein therapeutics. The format is binding. To be noted: ELISA, stored at the recommended temperature of 4° C. As for the experimental part: as §5
The mark [9] stands for this setting: glucagon after heat-denaturation at 37° C. at low pH in HCl buffer.

T1 sequence (P00750 36-562): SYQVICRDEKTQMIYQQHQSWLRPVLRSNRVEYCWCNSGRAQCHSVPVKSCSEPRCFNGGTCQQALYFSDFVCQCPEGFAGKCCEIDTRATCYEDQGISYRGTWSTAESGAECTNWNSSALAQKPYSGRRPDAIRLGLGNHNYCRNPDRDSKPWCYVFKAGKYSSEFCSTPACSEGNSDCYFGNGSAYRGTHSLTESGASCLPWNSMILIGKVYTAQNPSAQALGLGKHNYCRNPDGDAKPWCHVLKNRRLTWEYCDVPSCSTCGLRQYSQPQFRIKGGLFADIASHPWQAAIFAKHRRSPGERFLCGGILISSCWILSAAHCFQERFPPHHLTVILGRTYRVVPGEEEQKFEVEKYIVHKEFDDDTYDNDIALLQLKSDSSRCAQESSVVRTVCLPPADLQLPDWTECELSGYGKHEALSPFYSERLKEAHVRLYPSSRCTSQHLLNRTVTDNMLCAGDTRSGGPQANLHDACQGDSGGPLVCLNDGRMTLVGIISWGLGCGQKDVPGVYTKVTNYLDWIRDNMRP

As for Etanercept, the “tPA activation Max. Activation” value in series [1] is 0%. Also, the “amyloid-like properties (ThT-fluorescence and tPA activation)” value (“amyloid-like properties” for short) in series [2] is on record as “amyloid-like properties are adopted”. Besides, in series [3], the “Fluorescence ThT” value is listed as 23 +/− 3 a.u. Besides, in series [4], the tPA activating potential entry is on record as “some tPA activation”. Moreover, in series [5] (Example 4, native, heat-denatured or alkylated preparation as labelled), the “enhancement of ThT fluorescence” value is “some ThT fluorescence enhancement”.

For the substance “Glucagon: human glucagon (Glucagen, Novo Nordisk)”, the “tPA activation Max. Activation” value in series [1] turned out to be 11.25%. Also, in series [2], the “amyloid-like properties” value is “amyloid-like properties are adopted”. Further, the “Fluorescence ThT” value in series [3] is on record as 48 +/− 1 a.u. The tPA activating potential result in series [4] is “some tPA activating potential”. In addition, the tPA activation entry in series [4] (setting [9]) was “potent activator of tPA”. Besides, in series [5] (setting [9]), the “enhancement of ThT fluorescence” value is listed as “enhanced ThT fluorescence to a large extent”.

As to “Infliximab: human-murine chimeric monoclonal antibody (Remicade-infliximab)”, the “tPA activation Max. Activation” value in series [1] worked out at 0%. Moreover, in series [2], the “amyloid-like properties” value is recorded as “amyloid-like properties are adopted”. Moreover, in series [3], the “Fluorescence ThT” value was 19 +/− 1 a.u. Also, the “Fluorescence CR” value in series [6] is given as 67 +/− 2 a.u.

With “Insulin Aspart: rapid acting human insulin analogue (NovoRapid Flexpen, Novo Nordisk)”, in series [1], the “tPA activation Max. Activation” value came out at 70.93%. Besides, the “Fluorescence ThT” value in series [3] is 172 +/− 3 a.u. Further, in series [7], the “tPA Binding Bmax” value amounted to 3.617 OD450 nm. For the same substance, in series [4] (protein solutions stored at 4° C.), the tPA activation entry was “activated tPA to a lesser extent, but still significantly”. The “Fluorescence CR” value in series [6] is 81 +/− 2 a.u.

Regarding “Insulin Zn Suspension: recombinant human Zn2+-chelated insulin (Monotard, Novo Nordisk)”, in series [1], the “tPA activation Max. Activation” value is 17.44%. Further, in series [8], the “binding of tPA” value was “binding of tPA was established”. Further, in series [3], the “Fluorescence ThT” value is listed as 387 +/− 72 a.u. In series [7], the “tPA Binding Bmax” value came to 0.7558 OD450 nm. The “Fluorescence CR” value in series [6] was 79 +/− 6 a.u.

With “heat/acid-denatured glucagon: glucagon kept at 37° C. in 10 mM HCl”, the “presence of cross-β structure conformation” value in series [5] (conclusion from ThT fluorescence, Plg-activation assay and TEM) is reported as “comprise the cross-β structure conformation”.
